From US20120171240A1 (UNIVERSITY OF LOUISVILLE RESEARCH FOUNDATION, published 2012) come the findings set out here.

Experiment [1] concerns the target 4-1BB receptor on mouse T cells (mouse) (UniProt P20334). The experiment is described as follows: cell-based or functional assay.
The next experiment addresses human CD40 receptor (human, UniProt P25942 21-277). The experiment in a line: cell-based or functional assay.

Sequence of human CD40 receptor (P25942 21-277): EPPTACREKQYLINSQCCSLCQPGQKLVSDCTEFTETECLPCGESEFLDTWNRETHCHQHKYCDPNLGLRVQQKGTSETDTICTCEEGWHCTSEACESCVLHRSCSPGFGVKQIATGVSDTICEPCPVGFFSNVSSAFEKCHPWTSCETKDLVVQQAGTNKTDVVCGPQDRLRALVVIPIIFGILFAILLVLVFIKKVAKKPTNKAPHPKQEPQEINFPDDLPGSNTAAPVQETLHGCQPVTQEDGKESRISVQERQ
Sequence of 4-1BB receptor on mouse T cells (mouse) (P20334 24-256): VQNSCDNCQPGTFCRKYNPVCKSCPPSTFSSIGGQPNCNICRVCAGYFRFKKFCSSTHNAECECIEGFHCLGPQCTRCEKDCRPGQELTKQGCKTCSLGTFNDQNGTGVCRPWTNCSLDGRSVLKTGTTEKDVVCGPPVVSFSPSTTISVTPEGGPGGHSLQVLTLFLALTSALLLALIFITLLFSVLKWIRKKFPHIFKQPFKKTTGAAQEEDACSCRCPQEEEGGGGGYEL

In experiment [1], CSA-4-1BBL fusion protein (ligand) showed a proliferation of CFSE-labeled CD4+CD25- (SP) T cells, percent dividing of 60% and a proliferation of SP T cells in co-culture with CD4+CD25+ (DP) Treg cells, percent dividing of 34%.
“commercially available trimeric recombinant human CD40L (rhsCD40L) (from UniProt P29965 116-261) (ligand)”: the iNOS production, Western blot, IFN-γ primed CD40KO-human CD40 macrophages with human CD40 receptor stood at 6 fold.

B1: CSA-hCD40L (fusion of core streptavidin and the extracellular domain of human CD40L) (ligand)
chain: RSHHHHHHITGTWYNQLGSTFIVTAGADGALTGTYESAVGNAESRYVLTGRYDSAPATDGSGTALGWTVAWKNNYRNAHSATTWSGQYVGGAEARINTQWLLTSGATEANAWKSTLVGHDTFTKVKPSAASSEFLDKIEDERNLHEDFVFMKTIQRCNTGERSLSLLNCEEIKSQFEGFVKDIMLNKEETKKENSFEMQKGDQNPQIAAHVISEASSKTTSVLQWAEKGYYTMSNNLVTLENGKQLTVKRQGLYYIYAQVTFCSNREASSQAPFIASLCLKSPGRFERILLRAANTHSSAKPCGQQSIHLGGVFELQPGASVFVNVTDPSQVSHGTGFTSFGLLKL
As to B1, in the experiment with human CD40 receptor, the “IL-6 mRNA, RNAse protection assay, murine CD40KO macrophage line expressing human CD40” value turned out to be 2.8 fold; the “human IL-10 production (printed so; summed up as IL-1β) by human monocytes, ELISA, 18 h” value was 5 fold; the “iNOS production, Western blot, IFN-γ primed CD40KO-human CD40 macrophages” value amounted to 9 fold.
